Source: patent publication US10828354B2, “Laser-assisted intradermal administration of active substances” (PANTEC BIOSOLUTIONS AG, priority 2015, dated 2020)

Columns and labels:
B16-OVA melanoma = B16-OVA melanoma tumor model; assay type: in vivo, mouse; details: for tumor growth, therapeutic setting: B6 mice, immunized 3 days after s.c. inoculation, monitored 16 days after inoculation, vs OVA and PBS groups
Description: B Cohort of mice treated as specified in A with 20 μl of PBS containing OVA (low dose: 1.5 μg or high dose: 3.1 μg), or XCL1-OVA vaccibodies (low dose 2.5 μg or high dose 5.0 μg) were analyzed for tumor volume. Control mice were treated with 20 μl of PBS. Tumor volume is shown for each individual mouse and the mean (horizontal bar) is indicated for each condition.***, p<0.001; **, p<0.01; *, p<0.05 and NS: non significant.
C Time line of the prophylactic setting involving laser-assisted, dermal delivery of 20 μl of PBS containing OVA (1.5 μg) or XCL1-OVA vaccibodies (2.5 μg), subcutaneaous inoculation of the B16-OVA melanoma, and tumor volume measurement.
The B16-OVA melanoma is not rejected by immune-competent syngeneic B6 mice, unless mice have been subjected to prophylactic or therapeutic immunization. To evaluate the capacity of laser-assisted, intradermal delivery of XCL1-OVA vaccibodies to inhibit the growth of B16-OVA tumors, B6 mice were subcutaneously inoculated in the flank with B16-OVA cells (FIG. 4A). Three days later, the ear of the mice was subjected to laser-assisted, dermal delivery of XCL1-OVA vaccibodies and tumor growth was monitored 16 days after inoculation. For the sake of comparison, mice received equimolar amounts of free OVA or PBS. […] To investigate the prophylactic effects on tumor growth of laser-assisted intradermal XCL1-OVA immunization, B6 mice were immunized with XCL1-OVA vaccibodies and subcutaneously inoculated with B16-OVA tumor cells 30 days later (FIG. 4C).
(§1) Mice were injected subcutaneously (s.c.) into the flank with 10^5 B16-OVA or B16 melanoma cells (Brown et al, 2001). Tumor size was assessed 14 to 16 days later using a caliper. The presence of T cells infiltrating the tumor was assessed after enzymatic treatment of tumor mass with collagenase 2 (Worthington) and Percoll gradient (Amersham-Pharmacia).

[1] = test system: tumor infiltrating CD8+ and CD4+ T cells; experiment: Intracellular IFNgamma and tetramer staining of tumor-infiltrating T cells; assay type: in vivo, mouse; details: day 11 after immunization, PMA and ionomycin restimulation
Description: D B6 mice were subcutaneously inoculated with B16-OVA or B16 and immunized 3 days later with 20 μl of PBS containing OVA (1.5 μg) or XCL1-OVA (2.5 μg) vaccibodies using laser-assisted, dermal delivery. On day 11 after immunization, the tumor mass of each mouse was excised and the percentage of […] cells determined among tumor infiltrating CD8^+ and CD4^+ T cells. Data are shown for each individual mouse and the mean (horizontal bar) is indicated for each condition. **, p<0.01; *, p<0.05 and NS for non significant.
A, B, C Mice were immunized as in FIG. 4C. […]
To assess whether the reduction in melanoma tumor growth observed upon treatment with XCL1-OVA vaccibodies was associated with the induction of endogeneous, antigen-specific CD8^+ T cells, wild-type and Xcr1^−/− mice were immunized via laser-assisted intradermal delivery of XCL1-OVA vaccibodies. Six days after immunization, the magnitude of OVA-specific T cell cytotoxicity was measured using an in vivo cytotoxic assay (FIG. 5 C). […]
as §1, with “(Amersham-Pharmacia). […]” for “(Amersham-Pharmacia).”

[2] = test system: OT-I CD8+ and OT-II CD4+ T cells; experiment: Proliferation of adoptively transferred CTV-labeled OT-I and OT-II T cells after laser-assisted dermal antigen delivery; assay type: in vivo, mouse
Description: B Single-cell suspension were prepared from ear-draining, auricular LNs from B6 mice that received OT-I and OT-II T cells and were immunized by applying on laser-microporated ear 20 μl of PBS containing OVA (3.1 μg), XCL1-OVA vaccibodies (5 μg), XCL1 (1.8 μg) plus OVA (3.1 μg), or PBS alone as a control. CTV dilution of OT-I and OT-II T cells was measured 72 h after antigen delivery. Numbers in histograms indicate the percentage of divided T cells (n=3).
To test whether targeting XCR1^+ dermal DCs with antigen-loaded XCL1-based vaccibodies induced the activation of antigen-specific T cells in vivo, the model antigen OVA was inserted into XCL1-based vaccibodies. Mice were adoptively transferred with CellTraceViolet (CTV)-labeled, OT-I CD8^+ T cells, which express a T cell receptor (TCR) specific for SIINFEKL, an ovalbumin (OVA) peptide presented by H-2K^b, and OT-II CD4^+ T cells, which express a TCR specific for an OVA peptide presented by H2-A^b. One day later, the ear of the mice were subjected to laser-assisted microporation and topical application of XCL1-OVA vaccibodies. To compare the potency of the XCL1-OVA formulation with that of free OVA, mice were also treated with concentrations of OVA equimolar to that present in XCL1-OVA vaccibodies. Three days after immunisation, single-cell suspensions were prepared from ear-draining auricular lymph nodes (LNs) and the extent of OT-I and OT-II cell proliferation was determined by CTV dilution (FIG. 3A).
A P.L.E.A.S.E. portable laser developed by Pantec Biosolutions AG (Bach et al, 2012) was used with the following setting: fluence: 11.9 J/cm^2, pulse duration: 75 μs; RepRate: 200 Hz; pulses per pore: 2, pore array size: 14 mm^2 and pore density 8%. P.L.E.A.S.E.-assisted skin microporation was performed on the ear of anesthetized mice. 20 μl of sterile PBS, 20 μl of sterile PBS containing 1.5 μg (low) or 3.1 μg (high) OVA, or 20 μl of sterile PBS containing 2.5 μg (low) or 5 μg (high) XCL1-OVA were then evenly applied on the microporated ear surface. The PBS solution percolated inside the micropores in less than 10 minutes.
OT-I and OT-II T cells were isolated from pooled LNs and spleen of OT-I or OT-II mice kept on a Rag-2^−/−-B6 [CD45.1] background using CD8^+ and CD4^+ T cell negative isolation kits (Dynal, Invitrogen), respectively. Purity was determined by staining with CD4, CD8, CD5 and TCR Vα2. For CTV labeling, purified OT-I and OT-II T cells were resuspended in PBS containing 2.5 mM cell trace violet (CTV) (Molecular Probes) for 3 min at room temperature. 10^6 CTV-labeled OT-I and OT-II T cells were adoptively transferred into the specified mice. At the indicated times, single-cell suspensions were prepared from the auricular LNs draining the immunized ears and OT-I and OT-II T cells were analyzed by FACS.

B16 melanoma = B16 melanoma tumor model; assay type: in vivo, mouse; details: B6 mice immunized 3 days after inoculation, day 11 after immunization
Description: A B6 mice were subcutaneously inoculated with B16-OVA or B16 melanoma, and immunized 3 days later with XCL1-OVA vaccibodies using laser-assisted, dermal delivery. On day 11 after immunization, the volume of the tumor developing in each mouse was determined. Data are shown for each individual mouse and the mean (horizontal bar) is indicated for each condition. **, p<0.01.
The B16-OVA melanoma is not rejected by immune-competent syngeneic B6 mice, unless mice have been subjected to prophylactic or therapeutic immunization. To evaluate the capacity of laser-assisted, intradermal delivery of XCL1-OVA vaccibodies to inhibit the growth of B16-OVA tumors, B6 mice were subcutaneously inoculated in the flank with B16-OVA cells (FIG. 4A). Three days later, the ear of the mice was subjected to laser-assisted, dermal delivery of XCL1-OVA vaccibodies and tumor growth was monitored 16 days after inoculation. For the sake of comparison, mice received equimolar amounts of free OVA or PBS. […]
as §1

[3] = test system: SIINFEKL peptide-pulsed splenocytes; experiment: In vivo cytotoxicity assay; design: species or system mouse
Description: C B6 (WT) and Xcr1^−/− mice were subjected to laser-assisted, dermal delivery of 20 μl of PBS containing OVA (1.5 μg) or XCL1-OVA (2.5 μg) vaccibodies or of 20 μl of PBS (control), or. On day 6, mice were injected with CFSE-labeled target cells to quantitate the induced OVA-specific cytotoxicity in vivo (see Materials and Methods). The percent specific lysis is shown for each individual mouse and the mean (horizontal bar) is indicated for each condition. *, p<0.05.
To assess whether the reduction in melanoma tumor growth observed upon treatment with XCL1-OVA vaccibodies was associated with the induction of endogeneous, antigen-specific CD8^+ T cells, wild-type and Xcr1^−/− mice were immunized via laser-assisted intradermal delivery of XCL1-OVA vaccibodies. Six days after immunization, the magnitude of OVA-specific T cell cytotoxicity was measured using an in vivo cytotoxic assay (FIG. 5 C). […] Therefore, laser-assisted, intradermal delivery of XCL1-OVA vaccibodies induced anti-tumoral responses that can be correlated with the presence of OVA-specific IFNgamma^+ T cells in the regressing tumor mass.
Splenocytes from B6 mice were pulsed with the SIINFEKL peptide or left untreated and labeled with low (0.25 mM) or high (2.5 mM) dose of CTV, respectively. […] 36 h later, single-cell suspension were prepared from spleen and the ratio of CTV^high to CTV^low cells was determined by FACS.

[4] = B6 mice, auricular LNs, 3 days after immunisation

ovalbumin [model antigen ovalbumin in free form, equimolar comparator, reference compound]
tumor growth, therapeutic setting (B16-OVA melanoma): unable to slow down tumor growth | IFN gamma production by CD8+ and CD4+ T cells infiltrating B16-OVA tumor mass [1]: did not induce IFN[…]^+ T cells over PBS control

B1: XCL1-OVA vaccibodies: homodimeric chimeric protein of XCL1 chemokine, dimerization unit of hinge and CH3 domain of human IgG3, and OVA antigen moiety (protein)
chain: VGTEVLEESSCVNLQTQRLPVQKIKTYIIWEGAMRAVIFVTKRGLKICADPEAKWVKAAIKTVDGRASTRKNMAETVPTGAQRSTSTAITLTGELKTPLGDTTHTCPRCPEPKSCDTPPPCPRCPEPKSCDTPPPCPRCPEPKSCDTPPPCPRCPAPELLGGPSVFLFPPKPKDTLMISRTPEVTCVVVDVSHEDPEVQFKWYVDGVEVHNAKTKPREEQYNSTFRVVSVLTVLHQDWLNGKEYKCKVSNKALPAPIEKTISKTKGQPREPQVYTLPPSREEMTKNQVSLTCLVKGFYPSDIAVEWESSGQPENNYNTTPPMLDSDGSFFLYSKLTVDKSRWQQGNIFSCSVMHEALHNRFTQKSLSLSPGKGSIGAASMEFCFDVFKELKVHHANENIFYCPIAIMSALAMVYLGAKDSTRTQINKVVRFDKLPGFGDSIEAQCGTSVNVHSSLRDILNQITKPNDVYSFSLASRLYAEERYPILPEYLQCVKELYRGGLEPINFQTAADQARELINSWVESQTNGIIRNVLQPSSVDSQTAMVLVNAIVFKGLWEKAFKDEDTQAMPFRVTEQESKPVQMMYQIGLFRVASMASEKMKILELPFASGTMSMLVLLPDEVSGLEQLESIINFEKLTEWTSSNVMEERKIKVYLPRMKMEEKYNLTSVLMAMGITDVFSSSANLSGISSAESLKISQAVHAAHAEINEAGREVVGSAEAGVDAASVSEEFRADHPFLFCIKHIATNAVLFFGRCVSP
effectiveness at eliciting CD4+ T cell proliferation relative to free OVA, per molecule [2, 4]: 3 times | effectiveness at eliciting CD8+ T cell proliferation relative to free OVA, per molecule [2, 4]: 15 times | OT-I and OT-II cell proliferation (CTV dilution) compared with free OVA ([2]; B6 mice, ear-draining auricular LNs, 72 h after laser-assisted delivery, equimolar amounts): triggered a higher proliferation of OT-I and OT-II cells than free OVA | magnitude of OT-I and OT-II proliferation ([2]; Xcr1−/− mice): comparable to that of OVA | proliferation of OT-I and OT-II T cells outside draining LNs ([2]; spleen and LNs that drain territories distinct from the ear, 72 h): showed no sign of proliferation | inhibition of B16-OVA tumor growth, XCR1 dependence (B16-OVA melanoma; B6 (WT) vs Xcr1−/− mice): dependent on the expression of XCR1 | tumor growth, prophylactic setting (B16-OVA melanoma; B6 mice immunized 30 days before inoculation, monitored 14 days after inoculation, vs OVA and PBS): significantly slowed down tumor growth | tumor growth, therapeutic setting (B16-OVA melanoma): significantly suppressed tumor growth | tumor growth, therapeutic setting, high dose vs low dose (B16-OVA melanoma; high dose 5.0 μg XCL1-OVA): tumor growth was further reduced | tumor growth of B16 melanoma (B16 melanoma): not able to control the growth of B16 melanoma | OVA-specific T cell cytotoxicity in vivo (specific lysis) ([3]; Xcr1−/− mice): absence of detectable lysis | OVA-specific T cell cytotoxicity in vivo ([3]; wild-type mice, six days after immunization, vs PBS treated mice): induced a significant T cell cytotoxicity | IFN gamma production by CD8+ and CD4+ T cells infiltrating B16-OVA tumor mass [1]: capable of producing interferon (IFN) gamma
